# Reference: the domain aggregation screens of Martell et al. (2025)
# Experiment: soluble fraction after stress (log2 fold change); higher = more stays soluble; pooled small domains, quantitative proteomics
# Details: stress: 50 degC
# In short: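 The stress applied to every library was 50°C. These custom libraries of small protein domains were pooled and measured at high throughput with quantitative proteomics as the read-out. Aggregation propensity is expressed as the base-two logarithm of the fold change in how much of each protein remains soluble. The higher the value, the more of that protein stays in solution.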
row,Sequence,soluble fraction (log2)
1,HMFFFILNKGAKSGGEITHAVLNGSIVSKPAGWDAFHGLVLAKEKLSSEEIQRQMKELGVEMEIVPL,-0.58
2,HMPGLPLWAFSTRGSAIHTGASFRDGDGLLFGPESRGLPDWLLEEVGQDRVLRLPMRPGSRSLNLSNAV,-0.304
3,HMYNIDSFMTKNYPTMERFTLSDVQKKYKTTFGLFVKQDELASMIEKTGRFNITSSKNVKYVNR,-1.77
4,HMKRRSLQVGDIVQVRSLNVKGEVVSIGKNEVVVAVGRLQMRAGFDDLDFKERPKEEREVESV,-0.143
5,HMGARWPIQDRPLTATEAAAVRRMYAGGLPHGRSKNSVITEVWGDLSNKPKRLDWLNQALEGGA,0.184
6,HMDNVINDGMQVRFTGNVDINGTPLKIYDRIYTAEGISDDTVVLMLGNDVYARVYLSDVVPAD,-0.405
7,HMDYHTIQTGDKGDEVLRLQQALAEYGYYEGDLDGRFGQQTRRAVERFQYSHGLTADGIAGRNTLSVLYD,-0.101
8,HMDMSVDQFNQGIRGSELYQQFIHGRGLQQPDGKTREWTDADRNAWRRTLEASGVRIPDGMKIDNAGNLNE,0.275
9,HMNMSVGAALRRRRNELGMTLRELADEAELTSGFLSQVENDRVSPSLKSLGRIAEVLRIPLFQLLS,-1.29
10,HMKLTINIDAAHDGKTIKQLFAEKGYSLELIKKFKYDGAIEVNGERKTVRWVLREGDLLVLEAN,-1.25
11,HMSHRVGDVVELTAVRMNDQGVFLDAGTGNTSDDILLHKHQMTSPVSVGDKVKVQLYLDAKNRITASMKL,-0.000204
12,HMADMKIHLRPYAHDTNRWHVDIRLMHPTAATEIRKRLVAPAGLSEAQARAWGERQVPTILGKALGVI,-0.415
13,HMSIEIIEITSNSSPKNLSEIIDIDATQIVADLMGLGIMKAIDTPLENSEIEQLLEKYNLIAEFVE,-1.47
14,HMDQAEDVLSIPVDALMRGNQVYIKDDTVTEQQGPIPAGFKAVEVETGLISDSYVEIKSGLSEGDTVYVAE,0.141
15,HMPSGRIRWFDAKKGYGFIAGDDGKDVFLPQTALPQGVRNPRKGAKVEYSVIEGNRGQVAMGVTMV,-0.0368
16,HMGKEWPTPDNVEEWKKLVKKARLWPIQADQAQSEETRERNRKKWELFVAYAKRFGYRAGIGETGKPFVNN,-0.443
17,HMTTIHVDPEKISKIIGPGGKTIKKIVEETGAKIDIEEDGRVYIAAVNSEEAAKAIDMINGI,0.257
18,HMGPAAGVVEKYNLAHLSTGEMIRKEIAEGSDFGKMAAGIINKGELLSDEFVVALIENSIEHHKNVDGFLF,-0.00841
19,HMAEKRTAIITTARADIRQKPEATAPLAFEAVKDVVLELTDKPADGWVRVKHRDGSTGYIRINQI,0.0711
20,HMRTLSAGVAGRLRADILNGLLEPGRRLGMAELTERYGAGMSPVREALSRLVGEGLVQSEGQRGFRVA,-0.0944
21,HMNPETLTNSSVIKMSKANLSDELITDMILNSPVKFDLSAGAIKTLESEGVTPAVLESMKNAASK,0.154
22,HMIGVNMEKSTVEKFANELNLPIDLLLKQLESAGIKKTSGAEELLEADKSALLNYLQIEHGA,0.085
23,HMKLLLSANISKLRKKYSMTQEQLAEALGVTFASVSKWERGVATPELKLIAEMADMFEVSIDALIGYEFRN,-1.39
24,HMATSNGEFVIPDGGLQFEELERSLLMQALKKSGGSQTGAARLLGLSRDTLRYRLEKFGIDAAAVRE,-0.165

row,Sequence,soluble fraction (log2)
1,HMTIPNGTVVNGTVLEAREAGAYLVRVAGQTLTAQANLPLLVGQHFRAVWDSSGDIPVLRLSDAEQALLGK,0.119
2,HMSLREKNKARTRTAILNAARDLAKQGQWDAITTRQIADAAGVSYQTLYNYYPSKASILVEMLL,-1.45
3,HMAEVDDESIKLYDGGYQSNTTKSRLNALLSEFGYDTEHVFQKQFEWFISIFDLTEKAMRTVPFSNGMRL,-0.0834
4,HMRDQARQFFIDTWAKFQRHDALTPLEEKTAAIIALHPEYHRVLQNPESFITTDWRPESGDINPFMHL,-1.34
5,HMGDSFLDHKKELQSMILSRLDLSREVPDEEIKDIIDELIIAQSKKLFLSLNDRGKLRQELFYSIRK,-0.566
6,HMGTVQSVDRALLLLSEIGREPGGLVDLSTRVRLATSTTGRILATLEHAGAVVRGDDGIYHIGPLVHGMVS,-0.839
7,HMAPLADQIVDLLKEHDGFLPLHDNSSPEDIRATVGTSKKAFKQAIGGLFREKRIVIGPTGIRLIS,-0.378
8,HMEKFTGELSQEEKNVLDALSHEEMHVDIIIKLTKLETSAVSSTLSLLEIKGLIKNIGGQNYIK,0.486
9,HMGMEENLLKERKQILMDIMKSKEYQPMKVKELAMVLNVPKEDREELRYVLNELMNEGKIVESKKGKFSIA,0.177
10,HMKTGAKLKNLRKMKKLSQEEVAKVLNLSYSTLSRWENDTRIPTYEDLFKLGQFYGVSVDYLSDPN,-0.359
11,HMVEVPNVSNLTLEQAENKLIQQGLQVKLEGQGEKVVAQIPQPGAVVNKKSTVILF,0.129
12,HMNGPTPEEKLAVVNAEFVRQYGDEYEELELEGEELEEYYQKALNKEDFEYDIPHLPGWDEP,0.0217
13,HMASVVEQVQVSNDISLFRQQNSPYWQARFKVAGKWYTRTTKRTEQTQAAFRAAELRSEVQTKISQGIPLR,-0.866
14,HMVSVEELLSSLDPNEATVLKLLAERSSGVDELMERSGLDFSALSEAITNLELFGYIAREMDGVYSFS,-0.559
15,HMSNYPYLLRTYEGKLAVFTDDLVQPDLVFDVYVRTLPELDQQQLSRGIRVKTYDELTSMIEDYI,-1.13
16,HMLTIQNYFNQVKNIDWEQVPAALSKGHQLVEGASQNNWSAYHSNANIQRVVEAYFQKLNDYLEKN,-0.191
17,HMRQDEKTLLYWIGAQVKREGKLIKTSTAQYLVEKTGTDMENLEKELEKLFAYTLDEKEITPAAIDEI,-1.8
18,HMPLEQAELRLDLKQAILQMDRQTQELLLLRYVDGLSPGEAGKVLELSRFAVYRREKEALRKLRDYFSH,-1.79
19,HMIKILGSAYRHGLDDDDILRAWNYHIQEFFEGEDPEKIVRLGFDTHGRLLEIGGEIYPGGGEKIFHAM,-0.729
20,HMKNAMTDIYLEEIKKILTKNEFLVYTLRELNNFSVQFITDNYDLSEKTIYNSVYRAKKKIDRHFT,-0.0693
21,HMKHFNDEELDGFAGLKSDDYNEEQVELFRNIFEELHPDEIIEWTESLRRRGIEIPSSLKDEVVMMIN,0.173
22,HMPDLSYVDEVLNRYKGHKGTLITVLQQVQAHKGYLEKEALERVARSMGVPTARIYGVVTFYAQFR,0.0318
23,HMGISQAQAMQALRKLIEEEDKHTPLSDQTLMERLKAAGIPLARRTIAKYRESLGIPSAAQRK,-0.109
24,HMMKLSKRQEQIIAVVKEHQPVSGERISDILAVSRATLRSDLSFLTLSGILKASPKVGYTYES,-1.12

row,Sequence,soluble fraction (log2)
1,HMSPSLVEAMRLRMYEMGLNQAKLSELLGVSPSRVSDYLTGRSEPTLKVARDISRKLNIDASIVLG,-1.07
2,HMLISDENMLRDLVQAVLDENPKSVSDYKSGKTKAFGFLVGQTMKAVKGQADPMLVNKILTELLN,-0.0365
3,HMSLSDDIAQTLRQLGFDRDVSETLANDVLPAMPTRQDVIDLLGTLGIEKHVAADFANFVVLN,-0.723
4,HMNSNSLSFSKFMQEVEAGRVIEVQIKGNDIQGELSDGSKFKTYSPNYPNLVDKLSENKVSIVATPL,0.038
5,HMSMFAQQLKDLRKKIPGLTQTDMAKKLGIAKTTYASYEQGKRTPDIETQNKIADFFNVSLDYLHG,-0.0838
6,HMNKEDIASNEKLLGLLNHMSKVLKDIDFIKDDRPMIVRKINHIFKKATLSEEEINILRGVLSAIENHS,-0.479
7,HMDAPKTGSLVVSKAVNYGSWSGFTFRLHGTSDKGNSVDVTATTGSDGKAYFKDIEIGTYTLEEVN,-0.387
8,HMAVPTHVEFPVVGLQRSGITSLEQAIATVPGVSKAVVNVSDNRIFVDYDPTRSKVSDLLEVVRGAGFTP,-0.000584
9,HMVGNYYDILGVPETATQDAIKKAFRSLAQQHHPDKNPDDPGAEAMFKKVSEAYQVLSDPDKRQTYDASL,0.00894
10,HMGHKKLTIELQDEIIVLPKELEKYNLTVSDDKTSLIYTYKSRGEKTGITDLLRDIKDAGLRLKDLITEQ,0.434
11,HMTDFLKTRIDTLGLSTRTLNALSEANVRTIGGIARKKQEDLLEIDGIGEKGIQEIKKMLGEYGITL,-0.126
12,HMGITDHIYQDLKKRLENGNYPAGTRFPSESTLADEFSVNKMTMNKIVSMLAEQGYLIRGNRGAGTRVAEN,-0.0862
13,HMKNISSEEDREKALSLGITQEFIDNKGRYFITVPNKPSNFKEQALNIQKEISEQIDTVINKRFEF,-0.0173
14,HMSFGWESLENKEGVADTDLHPSGWVRIEDSRIFVVSEGDFINKGSKVTVLTVDGNRVVVRELI,-0.522
15,HMKPSNRSYPTALRMEVIGIIRERYADFGPTLAGEKLAELHGIHLGRETIRQWMMAAGLWKDRR,-0.825
16,HMTLPGQDFIRASQLKELIAKYDKQYYEEGVSDISDAEYDRLYEEYLEFENKYPELKDMADAPTKRV,0.332
17,HMSKISKENEQQVIQIVQTLLLNVQDKSLITTQILNEKINLAVSLDTKYKENLDRDYIIEELIRRYSVW,-1.12
18,HMDIAATTVKQKIRTLLADEDAARPLSDQKIADALAEDGIDVARRTVAKYREELGIEPSWARKR,0.0398
19,HMALGRTGEVYLPIPAGRAGHGKISITLQGALREVDAVTAGEALPRGTSVRVVDVAGNGVLLVEK,-0.059
20,HMSNEITVPDLSGMSLEELETILSDRSLSYEIIDSIYNSTAKKGTVSSQDPLPDAKVKSGRTIYITVVSKL,-1.5
21,HMLEYIEPRTAVQIHGIKAKPELNGKRGMVMGYAPERMRYRVRIDVGEGTGGKESEEVYLKPENVIAVK,0.0778
22,HMDSYADVLSDYRGKYKTNTISGLKGLRDKIREDMLAAADSLDFEKAALLRDEMNDLNKKIELKEKT,0.505
23,HMGIEQVELASRVRDAVDSLPHHLREIILLSYFQKMSYNQIAETLQVPLGTVKSRLHAAVASFAQAWTQSS,-0.706
24,HMTKRKNTEFRQQQIIEAAAKLIFKYGSEHLTVKRIAAQVGISEAAIYRHFTSKKSILSFLLSHIEE,-0.423
